Experiment [1] deals with T1, Retriever complex (VPS35L, VPS26C, VPS29) (human, UniProt Q7Z3J2 1-963; O14972 1-297; Q9UBQ0-2 1-186). Description: pull-down.
Experiment [2] addresses T1, Retriever complex (VPS35L, VPS26C, …). Kind of experiment: pull-down. This is another data set of the same source.

For orientation: Kd means a measure of binding affinity in units of concentration.

T1 sequence (Q7Z3J2 whole entry, chain 1 of 2): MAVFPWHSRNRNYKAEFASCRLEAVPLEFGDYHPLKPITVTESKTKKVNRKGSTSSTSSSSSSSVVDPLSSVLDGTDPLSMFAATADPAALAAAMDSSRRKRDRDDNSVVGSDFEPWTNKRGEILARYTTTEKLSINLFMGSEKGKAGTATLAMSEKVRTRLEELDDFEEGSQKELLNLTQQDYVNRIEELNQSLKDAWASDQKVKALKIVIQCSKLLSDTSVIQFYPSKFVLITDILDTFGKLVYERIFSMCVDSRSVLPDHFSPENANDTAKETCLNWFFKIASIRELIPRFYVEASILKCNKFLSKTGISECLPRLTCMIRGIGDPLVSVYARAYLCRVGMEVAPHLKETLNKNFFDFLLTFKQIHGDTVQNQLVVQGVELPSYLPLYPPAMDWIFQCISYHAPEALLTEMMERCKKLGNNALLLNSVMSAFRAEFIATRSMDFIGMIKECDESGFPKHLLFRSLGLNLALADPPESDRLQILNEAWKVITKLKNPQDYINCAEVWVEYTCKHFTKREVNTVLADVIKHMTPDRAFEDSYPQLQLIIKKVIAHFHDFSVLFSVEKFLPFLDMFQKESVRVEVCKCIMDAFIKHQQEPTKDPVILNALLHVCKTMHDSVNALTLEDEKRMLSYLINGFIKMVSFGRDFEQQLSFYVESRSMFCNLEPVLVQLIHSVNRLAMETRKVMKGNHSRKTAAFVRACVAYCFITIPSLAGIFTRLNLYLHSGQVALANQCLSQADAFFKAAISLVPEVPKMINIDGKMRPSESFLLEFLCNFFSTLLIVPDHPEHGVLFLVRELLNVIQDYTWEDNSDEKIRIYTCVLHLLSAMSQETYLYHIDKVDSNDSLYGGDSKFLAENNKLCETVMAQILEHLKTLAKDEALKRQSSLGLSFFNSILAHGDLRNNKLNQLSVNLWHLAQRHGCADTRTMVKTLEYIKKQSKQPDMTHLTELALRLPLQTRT
T1 sequence (O14972 whole entry, chain 2 of 2): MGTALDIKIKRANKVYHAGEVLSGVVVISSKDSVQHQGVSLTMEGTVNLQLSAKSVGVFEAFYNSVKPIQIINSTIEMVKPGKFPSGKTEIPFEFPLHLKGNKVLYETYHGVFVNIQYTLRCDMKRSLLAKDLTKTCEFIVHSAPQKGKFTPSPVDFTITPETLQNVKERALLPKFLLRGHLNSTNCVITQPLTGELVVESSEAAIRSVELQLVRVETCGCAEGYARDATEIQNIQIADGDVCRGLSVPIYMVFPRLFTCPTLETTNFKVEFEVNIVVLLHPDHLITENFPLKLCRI

Regarding ASASDVHGNFAFEGIGDEDL [GST-SNX17 CT (GST-tagged tail peptide, last 20 residues of SNX17)], the Kd in experiment [1] was about 110 nM. For SKIKIAKDDCVFGNIKEEDL [GST-tagged CT acidic tail of SNX31 (last 20 amino acids)], the binding result in experiment [2] is “binds”.

Turning to SVYLVNFRCCRSHDLCNEDL [GST-tagged CT acidic tail of PATE1 (last 20 amino acids)], the binding result in experiment [2] is listed as “binds”.

For the origin of these results see article PMC10980035 (bioRxiv, 2024).
